In patent US20190112341:

System: EV71 structural polyprotein P1 (Wt HK08), unprocessed (98 kDa)

Row | Substance | proteolytic processing of P1 in planta, anti-VP1 western blot (vectors 1300+1310) | proteolytic processing of P1 in planta, anti-VP1 western blot (vectors 1300+1315)
1 | EV71 protease 3CD (Wt HK08) | the 98 kDa signal completely disappears and a new product is detected that corresponds in molecular weight to VP1 (33.5 kDa) | –
2 | EV71 protease 3CD (Wt GDFS08) | – | the 98 kDa signal completely disappears and a new product is detected that corresponds in molecular weight to VP1 (33.5 kDa)
